The target of this assay is FGF receptor/BKL complex on HEK293 cells overexpressing human beta-klotho (BKL) (human) (UniProt Q86Z14). Description: cell-based or functional assay.
FGF receptor/BKL complex on HEK293 cells overexpressing human beta-klotho (BKL) (human), sequence (Q86Z14 whole entry, one chain of several): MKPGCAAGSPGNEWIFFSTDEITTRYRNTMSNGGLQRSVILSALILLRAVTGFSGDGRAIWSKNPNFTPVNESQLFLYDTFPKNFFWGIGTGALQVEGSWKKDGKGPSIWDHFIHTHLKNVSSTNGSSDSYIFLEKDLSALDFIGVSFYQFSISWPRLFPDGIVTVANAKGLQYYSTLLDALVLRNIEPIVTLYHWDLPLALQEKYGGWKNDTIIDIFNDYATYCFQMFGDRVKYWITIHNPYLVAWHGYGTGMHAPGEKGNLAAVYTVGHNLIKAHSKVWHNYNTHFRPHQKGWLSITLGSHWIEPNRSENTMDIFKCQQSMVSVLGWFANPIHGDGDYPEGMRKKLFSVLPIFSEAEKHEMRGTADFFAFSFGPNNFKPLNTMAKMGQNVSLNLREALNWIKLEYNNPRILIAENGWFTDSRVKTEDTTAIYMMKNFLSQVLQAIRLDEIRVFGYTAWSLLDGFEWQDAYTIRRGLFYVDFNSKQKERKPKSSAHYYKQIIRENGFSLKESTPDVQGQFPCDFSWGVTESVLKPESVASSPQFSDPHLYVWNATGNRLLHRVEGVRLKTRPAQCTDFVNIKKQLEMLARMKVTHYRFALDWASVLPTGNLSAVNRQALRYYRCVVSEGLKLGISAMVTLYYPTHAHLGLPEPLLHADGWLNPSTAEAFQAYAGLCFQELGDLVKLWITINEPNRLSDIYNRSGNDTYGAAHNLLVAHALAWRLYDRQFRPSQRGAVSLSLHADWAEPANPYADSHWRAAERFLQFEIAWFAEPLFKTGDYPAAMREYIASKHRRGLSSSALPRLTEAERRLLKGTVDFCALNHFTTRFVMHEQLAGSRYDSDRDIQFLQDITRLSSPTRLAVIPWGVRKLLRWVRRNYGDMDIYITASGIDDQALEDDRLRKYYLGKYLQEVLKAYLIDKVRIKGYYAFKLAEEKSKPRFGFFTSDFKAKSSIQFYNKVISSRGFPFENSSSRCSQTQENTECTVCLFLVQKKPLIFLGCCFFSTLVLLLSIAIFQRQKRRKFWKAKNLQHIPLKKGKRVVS

4-[10-[[(1S)-4-[2-[2-[2-[2-[2-[2-[[(1S)-5-acetamido-1-carboxy-pentyl]amino]-2-oxo-ethoxy]ethoxy]ethylamino]-2-oxo-ethoxy]ethoxy]ethylamino]-1-carboxy-4-oxo-butyl]amino]-10-oxo-decoxy]benzoic acid]-Ala, sequence (Q9NSA1 other isoform, or with tags, fused parts or gaps limits assumed): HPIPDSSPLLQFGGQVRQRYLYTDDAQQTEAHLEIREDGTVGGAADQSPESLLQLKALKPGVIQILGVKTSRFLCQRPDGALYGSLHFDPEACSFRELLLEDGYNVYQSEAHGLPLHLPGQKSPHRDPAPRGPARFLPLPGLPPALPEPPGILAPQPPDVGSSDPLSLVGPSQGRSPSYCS
Ala[Gln121,Leu168,Cys175]FGF21, sequence (Q9NSA1 other isoform, or with tags, fused parts or gaps limits assumed): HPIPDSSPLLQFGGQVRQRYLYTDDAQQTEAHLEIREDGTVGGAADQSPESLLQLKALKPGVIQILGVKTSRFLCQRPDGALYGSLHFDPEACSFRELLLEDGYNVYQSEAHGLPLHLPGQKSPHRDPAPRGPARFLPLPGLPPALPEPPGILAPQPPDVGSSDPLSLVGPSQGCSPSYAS
Ala[Gln121,Leu168,Cys173]FGF21, sequence (Q9NSA1 other isoform, or with tags, fused parts or gaps limits assumed): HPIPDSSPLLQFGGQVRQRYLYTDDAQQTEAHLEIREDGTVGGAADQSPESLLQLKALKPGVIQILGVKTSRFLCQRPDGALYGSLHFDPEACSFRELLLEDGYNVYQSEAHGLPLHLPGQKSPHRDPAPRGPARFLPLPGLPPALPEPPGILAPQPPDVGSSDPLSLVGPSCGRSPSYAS
Ala[Gln121,Leu168,Cys169]FGF21, sequence (Q9NSA1 other isoform, or with tags, fused parts or gaps limits assumed): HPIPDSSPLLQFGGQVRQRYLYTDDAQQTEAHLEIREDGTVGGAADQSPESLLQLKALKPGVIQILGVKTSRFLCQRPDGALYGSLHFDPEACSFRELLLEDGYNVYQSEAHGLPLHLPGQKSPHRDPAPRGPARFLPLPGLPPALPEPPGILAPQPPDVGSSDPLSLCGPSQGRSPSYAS
Ala[Gln121,Leu168,Cys170]FGF21, sequence (Q9NSA1 other isoform, or with tags, fused parts or gaps limits assumed): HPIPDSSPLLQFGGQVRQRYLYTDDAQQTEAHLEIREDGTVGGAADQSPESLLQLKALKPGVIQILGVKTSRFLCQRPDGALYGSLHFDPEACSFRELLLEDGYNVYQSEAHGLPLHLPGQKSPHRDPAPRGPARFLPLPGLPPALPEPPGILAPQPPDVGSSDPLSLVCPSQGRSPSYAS
Ala[Gln121,Leu168,Cys172]FGF21, sequence (Q9NSA1 other isoform, or with tags, fused parts or gaps limits assumed): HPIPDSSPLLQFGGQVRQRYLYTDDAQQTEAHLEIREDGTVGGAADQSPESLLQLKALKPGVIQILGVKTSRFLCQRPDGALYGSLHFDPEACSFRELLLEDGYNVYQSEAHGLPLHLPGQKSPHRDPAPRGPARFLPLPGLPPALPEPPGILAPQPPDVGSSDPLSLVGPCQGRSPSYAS

Regarding “S{Beta-174}-[2-[2-[[2-[2-[2-[[2-[2-[2-[[(4S)-4-carboxy-4-(13-carboxytridecanoyl-amino)butanoyl]amino]ethoxy]ethoxy]acetyl]amino]ethoxy]ethoxy]acetyl]amino]-ethylamino]-2-oxoethyl]-Ala[Gln121,Leu168,Cys174]FGF21 (from UniProt Q9NSA1 29-209) (ligand)”, the EC50 (0.1% HSA) (nM), pERK, HEK293/BKL cells was found to be 4 nM and the EC50 (nM), pERK, HEK293/BKL cells worked out at 4 nM.

Substance “Ala[Gln121,Cys167,Leu168,]FGF21 (from UniProt Q9NSA1 29-209) (ligand)” displayed an EC50 (nM), pERK, HEK293/BKL cells of 4 nM.

As to “12-[[(1S)-4-[2-[2-[2-[2-[2-[2-[[(1S)-5-acetamido-1-carboxy-pentyl]amino]-2-oxo-ethoxy]ethoxy]ethylamino]-2-oxo-ethoxy]ethoxy]ethylamino]-1-carboxy-4-oxo-butyl]amino]-12-oxo-dodecanoic acid-Ala[Gln121,Leu168,Cys180]FGF21 (from UniProt Q9NSA1 29-209) (ligand)”, the EC50 (0.1% HSA) (nM), pERK, HEK293/BKL cells amounted to 3.4 nM and the EC50 (nM), pERK, HEK293/BKL cells was 8.4 nM.

“18-[[(1S)-4-[2-[2-[2-[2-[2-[2-(2-acetamidoethylamino)-2-oxo-ethoxy]ethoxy]ethylamino]-2-oxo-ethoxy]ethoxy]ethylamino]-1-carboxy-4-oxo-butyl]amino]-18-oxo-octadecanoic acid-Ala[Gln121,Leu168,Cys170]FGF21 (from UniProt Q9NSA1 29-209) (ligand)” gave an EC50 (0.1% HSA) (nM), pERK, HEK293/BKL cells of 20 nM and an EC50 (nM), pERK, HEK293/BKL cells of 1 nM.

Regarding “Ala[Gln121,Leu168,Cys170]FGF21 (from UniProt Q9NSA1 29-209) (ligand)”, the EC50 (nM), pERK, HEK293/BKL cells turned out to be 7 nM.

Take “S{Beta-181}-[2-[2-[[2-[2-[2-[[2-[2-[2-[[(4S)-4-carboxy-4-(11-carboxyundecanoyl-amino)butanoyl]amino]ethoxy]ethoxy]acetyl]amino]ethoxy]ethoxy]acetyl]amino]-ethylamino]-2-oxoethyl]-Ala[Gln121,Leu168,Cys181]FGF21 (from UniProt Q9NSA1 29-208) (ligand)”: the EC50 (0.1% HSA) (nM), pERK, HEK293/BKL cells turned out to be 137 nM and the EC50 (nM), pERK, HEK293/BKL cells was found to be 154 nM.

“(2S)-6-acetamido-2-[[2-[2-[2-[[2-[2-[2-[[(4S)-4-carboxy-4-(16-sulfohexadecanoylamino)butanoyl]amino]ethoxy]ethoxy]acetyl]amino]ethoxy]ethoxy]acetyl]amino]hexadecanoic acid-Ala[Gln121,Leu168,Cys180]FGF21 (from UniProt Q9NSA1 29-209) (ligand)” registered an EC50 (0.1% HSA) (nM), pERK, HEK293/BKL cells of 7.1 nM and an EC50 (nM), pERK, HEK293/BKL cells of 4.2 nM.

On to “16-[[4-[[(1S)-4-[2-[2-[2-[2-[2-[2-(2-acetamidoethylamino)-2-oxo-ethoxy]ethoxy]ethylamino]-2-oxo-ethoxy]ethoxy]ethylamino]-1-carboxy-4-oxo-butyl]carbamoyl]cyclohexyl]methylamino]-16-oxo-hexadecanoic acid-Ala[Gln121,Leu168,Cys180]FGF21 (from UniProt Q9NSA1 29-209) (ligand)”, for which the EC50 (0.1% HSA) (nM), pERK, HEK293/BKL cells worked out at 3.2 nM and the EC50 (nM), pERK, HEK293/BKL cells stood at 3.5 nM.

As for “S{Beta-168}-[2-[2-[[2-[2-[2-[[2-[2-[2-[[(4S)-4-carboxy-4-(13-carboxytridecanoyl-amino)butanoyl]amino]ethoxy]ethoxy]acetyl]amino]ethoxy]ethoxy]acetyl]amino]-ethylamino]-2-oxoethyl]-Ala[Gln121,Cys168]FGF21 (from UniProt Q9NSA1 29-209) (ligand)”, the EC50 (0.1% HSA) (nM), pERK, HEK293/BKL cells stood at 4260 nM and the EC50 (nM), pERK, HEK293/BKL cells was found to be 667 nM.

The substance “4-[10-[[(1S)-4-[2-[2-[2-[2-[2-[2-[[(1S)-5-acetamido-1-carboxy-pentyl]amino]-2-oxo-ethoxy]ethoxy]ethylamino]-2-oxo-ethoxy]ethoxy]ethylamino]-1-carboxy-4-oxo-butyl]amino]-10-oxo-decoxy]benzoic acid]-Ala[Gln121,Leu168,Cys181]FGF21 (from UniProt Q9NSA1 29-208) (ligand)” yielded an EC50 (0.1% HSA) (nM), pERK, HEK293/BKL cells of 138 nM and an EC50 (nM), pERK, HEK293/BKL cells of 26.4 nM.

Take “20-[[4-[[(1S)-4-[2-[2-[2-[2-[2-[2-[[(1S)-5-[(2-acetamido]-1-carboxy-pentyl]amino]-2-oxo-ethoxy]ethoxy]ethylamino]-2-oxo-ethoxy]ethoxy]ethylamino]-1-carboxy-4-oxo-butyl]carbamoyl]cyclohexyl]methylamino]-20-oxo-icosanoic acid-Ala[Gln121,Leu168,Cys180]FGF21 (from UniProt Q9NSA1 29-209) (ligand)”: the EC50 (0.1% HSA) (nM), pERK, HEK293/BKL cells was 35.5 nM and the EC50 (nM), pERK, HEK293/BKL cells stood at 4 nM.

“S{Beta-175}-[2-[2-[[2-[2-[2-[[2-[2-[2-[[(4S)-4-carboxy-4-(15-carboxypentadecanoyl-amino)butanoyl]amino]ethoxy]ethoxy]acetyl]amino]ethoxy]ethoxy]acetyl]amino]-ethylamino]-2-oxoethyl]-Ala[Gln121,Leu168,Cys175]FGF21 (from UniProt Q9NSA1 29-209) (ligand)”: the EC50 (0.1% HSA) (nM), pERK, HEK293/BKL cells was determined as 1 nM and the EC50 (nM), pERK, HEK293/BKL cells was found to be 1 nM.

With “12-[[(1S)-4-[[(1S)-4-[2-[2-[2-[2-[2-[2-[[(1S)-5-acetamido-1-carboxy-pentyl]amino]-2-oxo-ethoxy]ethoxy]ethylamino]-2-oxo-ethoxy]ethoxy]ethylamino]-1-carboxy-4-oxo-butyl]amino]-1-carboxy-4-oxo-butyl]amino]-12-oxo-dodecanoic acid-Ala[Gln121,Leu168,Cys180]FGF21 (from UniProt Q9NSA1 29-209) (ligand)”, the EC50 (0.1% HSA) (nM), pERK, HEK293/BKL cells stood at 6.1 nM and the EC50 (nM), pERK, HEK293/BKL cells worked out at 7.9 nM.

Take “Ala[Gln121,Leu168,Cys175]FGF21 (from UniProt Q9NSA1 29-209) (ligand)”: the EC50 (nM), pERK, HEK293/BKL cells amounted to 11 nM.

For the substance “Ala[Gln121,Cys168]FGF21 (from UniProt Q9NSA1 29-209) (ligand)”, the EC50 (nM), pERK, HEK293/BKL cells is 492 nM.

“16-[[(1S)-4-[2-[2-[2-[2-[2-[2-(2-acetamidoethylamino)-2-oxo-ethoxy]ethoxy]ethylamino]-2-oxo-ethoxy]ethoxy]ethylamino]-1-carboxy-4-oxo-butyl]amino]-16-oxo-hexadecanoic acid-Ala[Gln121,Leu168,Cys174]FGF21 (from UniProt Q9NSA1 29-209) (ligand)” had an EC50 (0.1% HSA) (nM), pERK, HEK293/BKL cells of 4 nM and an EC50 (nM), pERK, HEK293/BKL cells of 2 nM.

With “4-[10-[[(1S)-4-[2-[2-[2-[2-[2-[2-[[(1S)-5-acetamido-1-carboxy-pentyl]amino]-2-oxo-ethoxy]ethoxy]ethylamino]-2-oxo-ethoxy]ethoxy]ethylamino]-1-carboxy-4-oxo-butyl]amino]-10-oxo-decoxy]benzoic acid]-Ala[Gln121,Leu168,Cys180]FGF21 (from UniProt Q9NSA1 29-209) (ligand)”, the EC50 (0.1% HSA) (nM), pERK, HEK293/BKL cells came out at 3 nM and the EC50 (nM), pERK, HEK293/BKL cells was found to be 5 nM.

In turn, “Ala[Gln121,Leu168,Cys173]FGF21 (from UniProt Q9NSA1 29-209) (ligand)” came in with an EC50 (nM), pERK, HEK293/BKL cells of 4 nM.

“S{Beta-173}-[2-[2-[[2-[2-[2-[[2-[2-[2-[[(4S)-4-carboxy-4-(15-carboxypentadecanoyl-amino)butanoyl]amino]ethoxy]ethoxy]acetyl]amino]ethoxy]ethoxy]acetyl]amino]-ethylamino]-2-oxoethyl]-Ala[Gln121,Leu168,Cys173]FGF21 (from UniProt Q9NSA1 29-209) (ligand)”: the EC50 (0.1% HSA) (nM), pERK, HEK293/BKL cells is 4 nM and the EC50 (nM), pERK, HEK293/BKL cells came out at 3 nM.

“4-[10-[[4-[2-[2-[2-[2-[2-[2-[[(1S)-5-acetamido-1-carboxy-pentyl]amino]-2-oxo-ethoxy]ethoxy]ethylamino]-2-oxo-ethoxy]ethoxy]ethylamino]-4-oxo-butyl]sulfonylamino]-10-oxo-decoxy]benzoic acid]-Ala[Gln121,Leu168,Cys180]FGF21 (from UniProt Q9NSA1 29-209) (ligand)”: the EC50 (0.1% HSA) (nM), pERK, HEK293/BKL cells is 4 nM and the EC50 (nM), pERK, HEK293/BKL cells worked out at 3.2 nM.

For “Ala[Gln121,Leu168,Cys172]FGF21 (from UniProt Q9NSA1 29-209) (ligand)”, the EC50 (nM), pERK, HEK293/BKL cells stood at 5 nM.

With “18-[[(1S)-4-[2-[2-[2-[2-[2-[2-(2-acetamidoethylamino)-2-oxo-ethoxy]ethoxy]ethylamino]-2-oxo-ethoxy]ethoxy]ethylamino]-1-carboxy-4-oxo-butyl]amino]-18-oxo-octadecanoic acid-Ala[Gln121,Leu168,Cys174]FGF21 (from UniProt Q9NSA1 29-209) (ligand)”, the EC50 (0.1% HSA) (nM), pERK, HEK293/BKL cells turned out to be 1 nM and the EC50 (nM), pERK, HEK293/BKL cells was found to be 1 nM.

As to “20-[[(1S)-4-[2-[2-[2-[2-[2-[2-[[(1S)-5-acetamido-1-carboxy-pentyl]amino]-2-oxo-ethoxy]ethoxy]ethylamino]-2-oxo-ethoxy]ethoxy]ethylamino]-1-carboxy-4-oxo-butyl]amino]-20-oxo-icosanoic acid-Ala[Gln121,Leu168,Cys180]FGF21 (from UniProt Q9NSA1 29-209) (ligand)”, the EC50 (0.1% HSA) (nM), pERK, HEK293/BKL cells came to 52.5 nM and the EC50 (nM), pERK, HEK293/BKL cells was 6.1 nM.

In turn, “12-[[4-[[(1S)-4-[2-[2-[2-[2-[2-[2-(2-acetamidoethylamino)-2-oxo-ethoxy]ethoxy]ethylamino]-2-oxo-ethoxy]ethoxy]ethylamino]-1-carboxy-4-oxo-butyl]carbamoyl]cyclohexyl]methylamino]-12-oxo-dodecanoic acid-Ala[Gln121,Leu168,Cys180]FGF21 (from UniProt Q9NSA1 29-209) (ligand)” gave an EC50 (0.1% HSA) (nM), pERK, HEK293/BKL cells of 4.7 nM and an EC50 (nM), pERK, HEK293/BKL cells of 4 nM.

For the substance “Ala[Gln121,Leu168,Cys169]FGF21 (from UniProt Q9NSA1 29-209) (ligand)”, the EC50 (nM), pERK, HEK293/BKL cells turned out to be 22 nM.
